Reference: publication PMC1088972, “Engineering a Dimeric Caspase-9: A Re-evaluation of the Induced Proximity Model for Caspase Activation” (PLoS Biology, 2005)

Legend:
[1] = molecular target: the molecule itself; assay: SEC; gel filtration of WT and engineered caspase-9 (Δ139, residues 140-416); unpublished data
[2] = molecular target: the molecule itself; assay: crystal structure; hanging-drop vapor diffusion, 100 mM MES pH 6.0, 5% PEG 5000 monomethyl ether, 3% tacsimate; space group C2; two molecules of the dimer in the asymmetric unit; molecular replacement

Row | Protein | stoichiometry N [1] | binding result [2]
1 | engineered (dimeric) caspase-9 (Δ139, residues 140-416) (domain or fragment, UniProt P55211 140-416, looked up, caspase-9, residues 140-416; prodomain and flexible linker removed; five residues of strand beta6 replaced by those of caspase-3 (Cys264-Ile-Val-Ser-Met268); Predicted dimer mass printed as 62,746 Da; written as one chain; also called engineered caspase-9 (Δ139); Δ139 dimeric caspase-9; source: E. coli BL21(DE3), vector pET-21b, purified (Ni-NTA, anion exchange Source-15Q, gel filtration …)) GALESLRGNADLAYILSMEPCGHCLIINNVNFCRESGLRTRTGSNIDCEKLRRRFSSLHFMVEVKGDLTAKKMVLALLELAQQDHGALDCCVVVILSHGCQASHLQFPGAVYGTDGCPVSVEKIVNIFNGTSCPSLGGKPKLFFIQACGGEQKDHGFEVASTSPEDESPGSNPEPDATPFQEGLRTFDQLDAISSLPTPSDIFVSYSTFPGFVSWRDPKSGSWYVETLDDIFEQWAHSEDLQSLLLRVANAVSVKGIYKQMPCIVSMLRKKLFFKTS | 2 | 
2 | dimeric caspase-9 (residues 140-416, C287S) (domain or fragment, UniProt P55211 140-416, looked up, caspase-9, residues 140-416; five residues of strand beta6 replaced by those of caspase-3; catalytic Cys287 mutated to Ser; Crystallised form; the model holds residues 140-288 and 335-416 (chains A, C) and 140-289 and 337-416 (chains B, D); also called dimeric caspase-9 (C287S); source: E. coli BL21(DE3), vector pET-21b, purified (Ni-NTA, anion exchange Source-15Q, gel filtration Superdex-200)) GALESLRGNADLAYILSMEPCGHCLIINNVNFCRESGLRTRTGSNIDCEKLRRRFSSLHFMVEVKGDLTAKKMVLALLELAQQDHGALDCCVVVILSHGCQASHLQFPGAVYGTDGCPVSVEKIVNIFNGTSCPSLGGKPKLFFIQASGGEQKDHGFEVASTSPEDESPGSNPEPDATPFQEGLRTFDQLDAISSLPTPSDIFVSYSTFPGFVSWRDPKSGSWYVETLDDIFEQWAHSEDLQSLLLRVANAVSVKGIYKQMPCIVSMLRKKLFFKTS |  | binds
